Laboratory results as given in patent publication US8540999B2, “Allergenic proteins and peptides from Japanese cedar pollen” (Merck Patent GmbH, priority 1991, dated 2013).

Test system: patients' plasma IgE
Test: Direct binding assay of IgE to Cry j I, Cry j II and recombinant Cry j II (Example 18)
Design: species or system human
Method: Costar assay plates were coated with Cry j I or Cry j II at 2 μg/mL or recombinant Cry j II preparation at 10 μg/mL (approximately 20% pure) in a volume of 50 μL overnight at 4° C. The coating antigens were removed and the wells were blocked with 0.5% gelatin, PVP (polyvinyl pyrolidine) 1 mg/mL in PBS, 200 μL/well for 2 hours at room temperature. The anti-Cry j I monoclonal antibody, 4B11, was serially diluted in PBS-Tween 20 starting at a 1:1000 dilution. The human plasma were serially diluted in PBS-Tween at a starting dilution of 1:2. For this set 23 plasma samples from patients symptomatic for Japanese cedar pollen allergy chosen for IgE binding analysis. The first antibody incubation proceeded overnight at 4° C. Following three washes with PBS-Tween the second antibodies were added (biotinylated goat anti-mouse Ig or goat anti-human IgE both at 1:2000) and incubated for two hours at room temperature at 100 μL/well. After washing 3 times, […]. This solution was removed and streptavidin-HRPO diluted to 1:10,000, was added at 100 μL/well. The color was allowed to develop for 2-5 minutes. The reaction was stopped by the addition of 100 μL/well of 1M phosphoric acid. Plates were read on a Microplate IL310 Autoreader (Biotek Instruments, Winooski, Vt.) with a 450 nm filter. The absorbance levels of duplicate wells were averaged. A positive binding result, indicated by a plus sign is determined to be a reading of two-fold or greater above background (no first antibody) at the second dilution of plasma ([…]).

B1: purified native Cry j I: major allergen of Japanese cedar pollen, biochemically purified in the native form (protein)
chain: DNPIDSCWRGDSNWAQNRMKLADCAVGFGSSTMGGKGGDLYTVTNSDDDPVNPAPGTLRYGATRDRPLWIIFSGNMNIKLKMPMYIAGYKTFDGRGAQVYIGNGGPCVFIKRVSNVIIHGLYLYGCSTSVLGNVLINESFGVEPVHPQDGDALTLRTATNIWIDHNSFSNSSDGLVDVTLTSTGVTISNNLFFNHHKVMLLGHDDAYSDDKSMKVTVAFNQFGPNCGQRMPRARYGLVHVANNNYDPWTIYAIGGSSNPTILSEGNSFTAPNESYKKQVTIRIGCKTSSSCSNWVWQSTQDVFYNGAYFVSSGKYEGGNIYTKKEAFNVENGNATPQLTKNAGVLTCSLSKRC
- plasma IgE binding response (patient #1034): no detectable binding
- plasma IgE binding response (patient plasma samples, FIGS. 31-33): variable response
